# Assay results: US7786071B2 (priority 2003, dated 2010)
# Where two headings read alike, the source gives them in different places.
# B1: G2E6: second-round directly evolved PON1 variant whose 3D structure was solved; SEQ ID NO: 28 (DNA), 60 (protein); 'wt' of Table 12 (protein)
# chain: MAKLTALTLLGMGLALFDRQKSSFQTRFNVHREVTPVELPNCNLVKGIDNGSEDLEILPNGLAFISSGLKYPGIMSFDPDKSGKILLMDLNEKEPAVSELEIIGNTLDISSFNPHGISTFIDDDNTVYLLVVNHPGSSSTVEVFKFQEEEKSLLHLKTIRHKLLPSVNDIVAVGPEHFYATNDHYFIDPYLKSWEMHLGLAWSFVTYYSPNDVRVVAEGFDFANGINISPDGKYVYIAELLAHKIHVYEKHANWTLTPLRVLSFDTLVDNISVDPVTGDLWVGCHPNGMRIFFYDAENPPGSEVLRIQDILSEEPKVTVVYAENGTVLQGSTVAAVYKGKLLIGTVFHKALYCDL
# modifications: In vitro evolved PON variant G2E6
# B2: G1C4: first-round directly evolved PON1 variant, thioredoxin-fused; SEQ ID NO: 26 (DNA), 58 (protein) (protein)
# chain: MAKLLALTLVGLGLALFDGQKSSFQTRFNVHREVTPVELPNCNLVKGIETGAEDLEILPNGLAFISSGLKYPGIMSFDPDKSGKILLMDLNEEDPVVLELGITGSTFDLSSFNPHGISTFTDEDNTVYLLVVNHPDSSSTVEVFKFQEKEKSLLHLKTIRHKLLPSVNDIVAVGPEHFYATNDHYFIDPYLKSWEMHLGLAWSFVTYYSPNDVRVVAEGFDFANGINISPDGKYVYIAELLAHKIHVYEKHANWTLTPLKSLDFNTLVDNISVDPVTGDLWVGCHPNGMRIFYYDPKNPPASEVLRIQDILSEDPKITVVYAENGTVLQGTTVASVYKGKLLIGTVFHKALYCDL
# modifications: thioredoxin-fused; In vitro evolved PON variant G1C4
# B3: G2D6: second-round directly evolved PON1 variant, thioredoxin-fused; SEQ ID NO: 27 (DNA), 59 (protein) (protein)
# chain: MAKLTALTLLGLGLALFDRQKSSFQTRFNVHREVTPVELPNCNLVKGIDNGSEDLEILPNGLAFISSGLKYPGIMSFDPDKSGKILLMDLNEEDPVVLELGITGSTFDLSSFNPHGISTFTDEDNTVYLLVVNHPDSSSTVEVFKFQEKERSLLHLKTIRHKLLPSVNDIVAVGPESFYATNDHYFADPYLKSWEMHLGLAWSFVTYYSPNDVRVVAEGFDFANGINISPDGKYVYIAELLAHKIHVYEKHANWTLTPLKSLDFNTLVDNISVDPVTGDLWVGCHPNGMRIFYYDPENPPGSEVLRIQDILSKEPKVTVVYAENGTVLQGSTVAAVYKGKLLIGTVFHKALYCDL
# modifications: thioredoxin fusion; In vitro evolved PON variant G2D6
# B4: G2C2: second-generation trx-rPON3 variant; SEQ ID NO: 45, 51 (protein)
# chain: MAKLLLLTLLGVGLSLVGERLLAFRNSFGAVQELEPVEPQNCVLIEGLENGSEDIDILPSGLAFISTGLKYPGMPNFAPDEPGKIFLMDLNEQNPRAQALEISGGFDKELFNPHGISTFIDKDNTVYLYVVNHPHMESTVEIFKFEEQQHSLIHLKTIKHELLKSVNDIVVLGPEQFYATRDHYFTNYVLARLEMILDLRWTYVLFYSPREVKVVAKGFSSANGITVSLDKKYVYVADATAKNVHVMEKHDNWDLTQLKVIQLGTLVDNLSVDPATGDILAGCHPNPMKLLNYNPEDPPGSEVLRIQNVLSEKPRVSTVYTNDGSVLQGTSVASVYQGKILIGTIFHKALHCDL
# modifications: thioredoxin fusion; In vitro evolved PON variant G2C2
# B5: G3A5: third generation trx-rPON3 variant; SEQ ID NO: 46, 52 (protein)
# chain: MGELLLLTLLGASLAFVGEMFLAFRERVNASREVEPVEPQNCVLIEGLENGSEDIDILPNGLAFISSGLKYPGMPNFAPDEPGKIFLMDLNEQNPRAQELEISNGFEKESFNPHGISTFIDKDHTVYLYVVNHPNMDSTVEIFKFEERQRSLVHLKTIKHELLKSVNDIVVLGPEQFYATRDRYFTNYVLALLEMILDPHWTSVVFYSPKEVKVVAQGFSSANGITVSLDKKYVYVADATAKNVHVMEKHDNWDLTPVKVIQLGTLVDNLSVDPATGDILAGCHPNPMKLLNYNPEDPPGSEVLRIRNVLSEKPRVSTVYTNDGSVLQGTSVASVYQGKILIGTIFHKTLYCDL
# modifications: thioredoxin fusion; In vitro evolved PON variant G3A5
# B6: G3G3: third generation trx-rPON3 variant; SEQ ID NO: 47, 53 (protein)
# chain: MAKLLLLTLLGASLAFVGERLLAFRDSFGAVQELEPVEPQNCVLIEGLENGSEDIDILPSGLAFISSGLKYPGMPNFAPDEPGKIFLIDMNEKNPRAQALEISGGFDKESFNPHGISTFIDKDHTVYLYVVNHPNMDSTVEVFKFEEQQHSLIHLKTIKHELLKSVNDIVVLGPEQFYATRDHYFTNSLLSFFEMILDLRWTSVLFYSPREVKVVAKGFSSANGITVSLDKKYVYVADVAAKNIHIMEKHDNWDLTELKVIHLDTLVDNLTVDPATGDILAGCHPNPMKLLNYNPEDPPGSEVLRIQNVLSEKPRVSTVYANNGSVLQGTSVASVYHGKILIGTIFHKTLYCDL
# modifications: thioredoxin fusion; In vitro evolved PON variant G3G3
# B7: G3H9: third generation trx-rPON3 variant; SEQ ID NO: 48, 54 (protein)
# chain: MAKLLLLTLLGVGLSLVGERLLAFRNSFGAVQELESVEPQNCVLIEGLENGSEDIDILPSGLAFISSGLKYPGMPNFAPDEPGKIFLIDMNEKNPRAQELKISNGFEKESFNPHGISTFIDKDHTVYLYVVNHPNMDSTVEIFKFEEQQRSLVHLKTIKHELLKSVNDIVVLGPEQFYATRDHYFTNSLLSFFEMILDLRWTSVVFYSPKEVKVVAKGFSSANGITVSLDKKYVYVADATAKNVHVMEKHDNWDLTPVKVIQLGTLVDNLTVDPATGDILAGCHPNPMKLLNYNPEDPPGSEVLRIQNVLSEKPRVSTVYTNDGSVLQGTSVASVYQGKILIGTIFHKALYCDL
# modifications: thioredoxin fusion; In vitro evolved PON variant G3H9
# B8: RabPON3: wild-type rabbit PON3 expressed in E. coli fused to thioredoxin; SEQ ID NO: 30, 41 (protein, listed as Oryctolagus cuniculus)
# chain: MAKLLLLTLLGASLAFVGERLLAFRNSFGAVQELEPVEPQNCVLIEGLENGSEDIDILPSGLAFISSGLKYPGMPNFAPDEPGKIFLIDMNEKNPRAQELEISNGFEKESFNPHGISTFIDKDHTVYLYVVNHPHMKSTVEIFKFEEQQRSLVHLKTIKHELLKSVNNIVVLGPEQFYATRDHYFTNYVLALLEMFLDLHWTSVLFYSPKEVKVVAKGFSSANGITVSLDKKYVYVADATAKNVHVMEKHDNWDLTELKVIHLDTLVDNLSVDPATGDILAGCHPNGMKLLNYNPEDPPGSEVLRIQNVLSEKPRVSTVYTNDGSVLQGSTVASVYQGKILIGTIFHKTLYCVL
# modifications: thioredoxin fusion
# B9: G1A7: first generation trx-rPON3 variant; SEQ ID NO: 43, 49 (protein)
# chain: MAKLLLLTLLGVGLSLVGERLLAFRNSFGAVQELEPVEPQNCHLIEGLENGSEDIDILPSGLAFISSGLKYPGMPAFAPDKPGRIFLMDLNEQNPEAQALEISGGLDQESLNPHGISTFIDKDSTAYLYVVNHPNMDSTVEIFKFEEQQRSLVHMKTIKHELLKSVNNIVVLGPEQFYATRDHYFTNSLLSFFEMILDPHWTSVVFYSPREVKVVAKGFSSANGITVSLDKKYVYVADATAKNVHVMEKHDNWDLTELKVIHLDTLVDNLTVDPATGDILAGCHPNPMKLLIYNPEDPPGSEVLRIQDSLSDKPRVSTLYANNGSVLQGTSVASVYHGKILIGTIFHKTLYCDL
# modifications: thioredoxin fusion; In vitro evolved PON variant G1A7
# B10: G1B11: first generation trx-rPON3 variant; SEQ ID NO: 44, 50 (protein)
# chain: MAKLLLLTLLGACLALIGERLLNFRERVSTTREIKATEPQNCHLIEGLENGSEDIDILPSGLAFISSGLKYPGMPNFAPDEPGKIFLIDMNEQNPRAQALEISGGFDKELFNPHGISTFIDKDHTVYLYVVNHPNMDSTVEIFKFEEQQHSLIHLKTLKHELLKSVNDIVVLGPEQFYATRDHYFTNYVLALLKMFLDLRWTSVLFYSPKEVKVVAKGFSSANGITVSLDKKYVYVADATAKNVHVMEKHDNWDLTELKVIQLGTLVDNLTVDPATGDILAGCHPNPMKLLIYNPEDPPGSEVLRIQDVLSEKPRVSTVYANNGSVLQGSTVASVYQGKILIGTIFHKTLYCVL
# modifications: thioredoxin fusion; In vitro evolved PON variant G1B11
# B11: G3C9.10: G3C9 variant with mutations L69V and E218D; SEQ ID NO: 62, 63 (protein)
# chain: MAKLTALTLLGLGLALFDGQKSSFQTRFNVHREVTPVELPNCNLVKGVDNGSEDLEILPNGLAFISSGVKYPGIMSFDPDKSGKILLMDLNEEDPVVLELGITGNTLDISSFNPHGISTFTDEDNTVYLLVVNHPDSSSTVEVFKFQEEEKSLLHLKTIRHKLLPSVNDIVAVGPEHFYATNDHYFADPYLKSWEMHLGLAWSFVTYYSPNDVRVVADGFDFANGINISPDGKYVYIAELLAHKIHVYEKHANWTLTPLKSLDFDTLVDNISVDPVTGDLWVGCHPNGMRIFYYDPKNPPGSEVLRIQDILSEEPKVTVVYAENGTVLQGSTVAAVYKGKLLIGTVFHKALYCEL
# modifications: In vitro evolved PON variant G3C9.10
# Columns and labels:
# [1] = assay type: biochemical
# [2] = assay type: biochemical; remark: listed apart in the source
# [3] = assay type: biochemical; conditions: read-out: 2NA hydrolysis KM
# [4] = assay type: biochemical; conditions: read-out: DEPCyC hydrolysis KM
# [5] = read-out: Paraxon hydrolysis KM
molecule,measurement,setting,value
B1,kcat (PheAc),[1]; pH 8,965 s⁻¹
same,Km,"[1]; pH 8, read-out: KM(PheAc)",430 µM
same,kcat(Paraoxon),[2]; pH 8,0.87 s⁻¹
same,Km,"[2]; pH 8, read-out: KM(Paraoxon)",89 µM
B2,kcat (PheAc),[1]; pH 8,552 s⁻¹
same,Km,"[1]; pH 8, read-out: KM(PheAc)",540 µM
same,kcat(Paraoxon),[2]; pH 8,0.54 s⁻¹
same,Km,"[2]; pH 8, read-out: KM(Paraoxon)",120 µM
B3,kcat (PheAc),[1]; pH 8,562 s⁻¹
same,Km,"[1]; pH 8, read-out: KM(PheAc)",320 µM
same,kcat(Paraoxon),[2]; pH 8,0.98 s⁻¹
same,Km,"[2]; pH 8, read-out: KM(Paraoxon)",100 µM
B4,Km,[2]; [5],800 µM
same,Km,[3],260 µM
B5,Km,[2]; [5],510 µM
B6,Km,[3],650 µM
B7,Km,[2]; [5],800 µM
B8,Km,[2]; [5],1300 µM
same,Km,[3],211 µM
B9,Km,[2]; [5],2500 µM
same,Km,[3],160 µM
B10,Km,[2]; [5],1100 µM
same,Km,[3],180 µM
B11,Km,[1]; read-out: Phenylacetate hydrolysis KM,760 µM
same,Km,[4],50 µM
